In assay [1] the target is T1, full-length beta-Catenin (Uniprot ID P35222) (Homo sapiens (Human), UniProt P35222 1-781).
T1 construct: The assay protocol says full-length beta-Catenin (Uniprot ID P35222); tags are not described; also called bCat; B-Catenin
T1 sequence: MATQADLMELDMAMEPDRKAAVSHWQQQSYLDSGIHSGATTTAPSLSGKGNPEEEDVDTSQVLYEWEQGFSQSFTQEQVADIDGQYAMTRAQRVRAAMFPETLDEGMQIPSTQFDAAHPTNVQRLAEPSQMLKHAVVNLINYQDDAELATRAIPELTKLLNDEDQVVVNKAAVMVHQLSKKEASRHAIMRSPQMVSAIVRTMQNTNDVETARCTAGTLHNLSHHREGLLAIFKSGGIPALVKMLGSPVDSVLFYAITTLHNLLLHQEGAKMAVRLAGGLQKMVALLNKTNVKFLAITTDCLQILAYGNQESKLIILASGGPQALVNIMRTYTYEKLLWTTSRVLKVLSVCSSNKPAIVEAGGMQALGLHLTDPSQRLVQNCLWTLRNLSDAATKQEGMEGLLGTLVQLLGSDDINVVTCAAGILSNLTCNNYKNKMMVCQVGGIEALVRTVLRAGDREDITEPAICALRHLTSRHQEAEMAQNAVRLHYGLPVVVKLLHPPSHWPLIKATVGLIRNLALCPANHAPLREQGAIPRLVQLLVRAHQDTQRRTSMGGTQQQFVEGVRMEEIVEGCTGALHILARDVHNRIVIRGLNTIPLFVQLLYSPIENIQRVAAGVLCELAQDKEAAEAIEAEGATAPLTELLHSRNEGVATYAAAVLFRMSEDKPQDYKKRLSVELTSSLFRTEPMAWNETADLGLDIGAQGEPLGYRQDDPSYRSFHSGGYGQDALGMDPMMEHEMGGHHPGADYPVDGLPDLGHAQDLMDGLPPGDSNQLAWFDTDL
In words: fluorescence polarization competition: full-length beta-catenin + 5FAM-TCF4(10-53) probe, peptide titrated. On the procedure:
(§1) The plate was incubated protected from light for 60 minutes at 20° C. prior to read. Reads were performed on a CLARIOstar plate reader (BMG Labtech) in duplicate, and data were fitted to a 1:1 binding model with hill slope using an in-house script. All provided concentrations are final concentrations.
In general terms: In fluorescence polarisation assays a small probe gives low polarisation when free and higher when bound to something large.

Assay [2] deals with T2, full-length beta-Catenin (Uniprot ID P35222) (Homo sapiens (Human), UniProt P35222 1-781).
T2 construct: also called bCat; B-Catenin
T2 sequence: T1 sequence
As to the kind of experiment: fluorescence polarization competition; full-length beta-catenin, competitor 5FAM-TCF4(10-53) probe. On the procedure:
as §1

The target in assay [3] is T3, full-length beta-Catenin (Uniprot ID P35222) (Homo sapiens (Human), UniProt P35222 2-781).
T3 construct: Tags of the recombinant protein are not described for the FP assay; also called bCat; B-Catenin
T3 sequence: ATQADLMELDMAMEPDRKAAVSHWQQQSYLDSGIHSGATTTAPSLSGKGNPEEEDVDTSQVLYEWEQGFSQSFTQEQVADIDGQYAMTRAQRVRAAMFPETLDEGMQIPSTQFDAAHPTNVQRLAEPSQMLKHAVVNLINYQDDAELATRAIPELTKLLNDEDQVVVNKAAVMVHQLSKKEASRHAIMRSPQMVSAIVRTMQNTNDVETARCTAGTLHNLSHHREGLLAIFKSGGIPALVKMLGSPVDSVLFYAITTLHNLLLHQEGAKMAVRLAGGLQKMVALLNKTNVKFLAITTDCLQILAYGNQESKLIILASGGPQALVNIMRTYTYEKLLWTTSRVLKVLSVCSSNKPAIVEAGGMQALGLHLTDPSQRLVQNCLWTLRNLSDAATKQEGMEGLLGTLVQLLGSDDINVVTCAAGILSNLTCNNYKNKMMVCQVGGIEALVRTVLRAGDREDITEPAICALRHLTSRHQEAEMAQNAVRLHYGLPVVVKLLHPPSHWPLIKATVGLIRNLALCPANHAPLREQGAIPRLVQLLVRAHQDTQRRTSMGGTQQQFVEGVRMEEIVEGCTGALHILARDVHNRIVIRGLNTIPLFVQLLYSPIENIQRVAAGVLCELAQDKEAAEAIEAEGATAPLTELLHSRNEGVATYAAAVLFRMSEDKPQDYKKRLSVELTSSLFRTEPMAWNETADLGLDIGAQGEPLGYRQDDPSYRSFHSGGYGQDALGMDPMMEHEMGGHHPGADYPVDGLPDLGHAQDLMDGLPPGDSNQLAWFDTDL
In words: fluorescence polarization competition; full-length beta-catenin, competitor 5FAM-TCF4 10-53. On the procedure: as §1

Starred links: 1 amine or outer side, 2 acyl side, 3 side chain; linkers in the order of their positions; H or OH if unused. Positions of bridges follow the written chain, without caps; N, C: chain ends. Non-standard residues stand in square brackets, D forms with d. Primed or numbered codes have the meaning given here. B5(11) = 2,2-bis(4-pentenyl)glycine = 2-amino-2-(pent-4-en-1-yl)hept-6-enoic acid (stitching residue, bears both staples), C=CCCCC(CCCC=C)(N[*:1])C(=O)[*:2]; B5(26) = 2-amino-2-(pent-4-en-1-yl)hept-6-enoic acid (bis-pentenylglycine), stitching residue carrying two staples, C=CCCCC(CCCC=C)(N[*:1])C(=O)[*:2]; B5(16) = 2-amino-2-(pent-4-en-1-yl)hept-6-enoic acid = 2,2-bis(4-pentenyl)glycine (stitching residue), C=CCCCC(CCCC=C)(N[*:1])C(=O)[*:2]; B5(24) = 2-amino-2-(pent-4-en-1-yl)hept-6-enoic acid, 2,2-bis(4-pentenyl)glycine (stitching residue), C=CCCCC(CCCC=C)(N[*:1])C(=O)[*:2]; B5(21) = 2-amino-2-(pent-4-en-1-yl)hept-6-enoic acid, bis(4-pentenyl)glycine (stitching residue), C=CCCCC(CCCC=C)(N[*:1])C(=O)[*:2]; B5(9) = 2-amino-2-(pent-4-en-1-yl)hept-6-enoic acid (2,2-bis(4-pentenyl)glycine), C=CCCCC(CCCC=C)(N[*:1])C(=O)[*:2]; S(OMe) = O-methyl-L-serine, COC[C@H](N[*:1])C(=O)[*:2]; Phe(2-Br) = N[C@@H](Cc1ccccc1Br)C(=O)O; Phe(2-OMe) = COc1ccccc1C[C@H](N)C(=O)O; His(τ-Me) = Cn1cnc(C[C@H](N)C(=O)O)c1; Phe(2-F) = N[C@@H](Cc1ccccc1F)C(=O)O; Bta = N[C@@H](Cc1csc2ccccc12)C(=O)O; His(π-Me) = Cn1cncc1C[C@H](N)C(=O)O; αAllylPro = C=CC[C@@]1(C(=O)O)CCCN1; NMeH = CN[C@@H](Cc1c[nH]cn1)C(=O)O; S8 = C=CCCCCCC[C@](C)(N)C(=O)O

B1: I-437 (peptide)
peptide: Ac-[αAllylPro]DA[B5(24)]DEAAFN[S8][Phe(2-OMe)][Bta]Q-NH2
modifications: staple 1-4, 4-11
notes: Stapled (stitched) peptide with non-natural residues
Regarding B1, the EC50 in assay [1] was 26 nM.

B2: I-735 (peptide)
peptide: XDLXDEAAFNXFXQI
modifications: not fully specified; N-terminal Ac; C-terminal NH2; PL3 at 1, B5 at 4, S8 at 11, BztA at 13, dIle (D-Ile) at 15; stapled PL3-B5 and B5-S8 by olefin metathesis
notes: Stapled peptide; also called Ac-PL3-Asp-Leu-B5-Asp-Glu-Ala-Ala-Phe-Asn-S8-Phe-BztA-Gln-dIle-NH2
B2 gave an IC50 in assay [2] of 246 nM.

B3: I-734 (peptide)
peptide: XDLXDEAAFNXFXQI
modifications: not fully specified; N-terminal Ac; C-terminal NH2; PL3 at 1, B5 at 4, S8 at 11, BztA at 13, dIle (D-Ile) at 15; stapled PL3-B5 and B5-S8 by olefin metathesis
notes: as for B2
B3 yielded an IC50 in assay [2] of 370 nM.

B4: I-746 (peptide)
peptide: Ac-[αAllylPro]DL[B5(11)]DEAAFN[S8]F[Bta][NMeH]-NH2
modifications: staple 1-4, 4-11; not fully specified
notes: Stapled peptide; same description as I-747, earlier eluting staple isomer composition; also called Ac-PL3-Asp-Leu-B5-Asp-Glu-Ala-Ala-Phe-Asn-S8-Phe-BztA-NMeHis-NH2
In assay [2], B4 displayed an IC50 of 5000 nM.

B5: I-436 (peptide)
peptide: Ac-[αAllylPro]DA[B5(24)]DEAAFN[S8][Phe(2-Br)][Bta]Q-NH2
modifications: staple 1-4, 4-11
notes: as for B1
Take B5: the EC50 in assay [1] is 56 nM.

B6: I-647 (peptide)
peptide: Ac-[αAllylPro]DI[B5(9)]DELAFQ[S8]F[Bta]Q-NH2
modifications: staple 1-4, 4-11
notes: Stapled peptide composition; also called Ac-PL3-Asp-Ile-B5-Asp-Glu-Leu-Ala-Phe-Gln-S8-Phe-BztA-Gln-NH2
Take B6: the IC50 in assay [3] came out at 445 nM.

B7: I-651 (peptide)
peptide: Ac-[αAllylPro]DI[B5(16)]DESAFQ[S8]F[Bta]Q-NH2
modifications: staple 1-4, 4-11
notes: Stapled peptide composition; also called Ac-PL3-Asp-Ile-B5-Asp-Glu-Ser-Ala-Phe-Gln-S8-Phe-BztA-Gln-NH2
As to B7, the IC50 in assay [3] was 186 nM.

B8: I-650 (peptide)
peptide: Ac-[αAllylPro]DI[B5(16)]DEFAFQ[S8]F[Bta]Q-NH2
modifications: staple 1-4, 4-11
notes: Stapled peptide composition; also called Ac-PL3-Asp-Ile-B5-Asp-Glu-Phe-Ala-Phe-Gln-S8-Phe-BztA-Gln-NH2
Turning to B8, the IC50 in assay [3] was determined as 137 nM.

B9: I-649 (peptide)
peptide: Ac-[αAllylPro]DI[B5(9)]DEFAFQ[S8]F[Bta]Q-NH2
modifications: staple 1-4, 4-11
notes: as for B8
With B9, the IC50 in assay [3] worked out at 209 nM.

B10: I-648 (peptide)
peptide: Ac-[αAllylPro]DI[B5(9)]DELAFQ[S8]F[Bta]Q-NH2
modifications: staple 1-4, 4-11
notes: as for B6
B10 returned an IC50 in assay [3] of 233 nM.

B11: I-434 (peptide)
peptide: Ac-[αAllylPro]DA[B5(24)]DEAAFN[S8][Phe(2-F)][Bta]Q-NH2
modifications: staple 1-4, 4-11
notes: as for B1
Regarding B11, in assay [1], the EC50 was 67.5 nM.

B12: I-433 (peptide)
peptide: Ac-[αAllylPro]DA[B5(24)]DEAAF[S(OMe)][S8]F[Bta]Q-NH2
modifications: staple 1-4, 4-11
notes: as for B1
Regarding B12, the EC50 in assay [1] is 136 nM.

B13: I-439 (peptide)
peptide: Ac-[αAllylPro]DA[B5(21)]DEAAFN[S8][His(τ-Me)][Bta]Q-NH2
modifications: staple 1-4, 4-11
notes: Staple isomer composition: earlier-eluting HPLC peak
For B13, in assay [1], the EC50 is 5000 nM.

B14: I-438 (peptide)
peptide: Ac-[αAllylPro]DA[B5(26)]DEAAFN[S8][His(π-Me)][Bta]Q-NH2
modifications: staple 1-4, 4-11
notes: as for B1
Take B14: the EC50 in assay [1] was found to be 5000 nM.

B15: I-440 (peptide)
peptide: XDAXDEAAFNXHXQ
modifications: not fully specified; Ac-PL3-Asp-Ala-B5-Asp-Glu-Ala-Ala-Phe-Asn-S8-1meH-BztA-Gln-NH2; N-terminal acetyl, C-terminal amide; stapled PL3(1)-B5(4) and B5(4)-S8(11) by olefin metathesis
notes: Staple isomer composition: later-eluting HPLC peak
For B15, in assay [1], the EC50 was 5000 nM.

B16: I-733 (peptide)
peptide: XDLXDEAAFNXFXQI
modifications: not fully specified; N-terminal Ac; C-terminal NH2; PL3 at 1, B5 at 4, S8 at 11, BztA at 13; stapled PL3-B5 and B5-S8 by olefin metathesis
notes: Stapled peptide; also called Ac-PL3-Asp-Leu-B5-Asp-Glu-Ala-Ala-Phe-Asn-S8-Phe-BztA-Gln-Ile-NH2
With B16, the IC50 in assay [2] came out at 4260 nM.

B17: I-744 (peptide)
peptide: XDLXDEAAFNXFXH
modifications: not fully specified; N-terminal Ac; C-terminal NH2; PL3 at 1, B5 at 4, S8 at 11, BztA at 13, dHis (D-His) at 14; stapled PL3-B5 and B5-S8 by olefin metathesis
notes: Stapled peptide; also called Ac-PL3-Asp-Leu-B5-Asp-Glu-Ala-Ala-Phe-Asn-S8-Phe-BztA-dHis-NH2
In turn, B17 gave an IC50 in assay [2] of 112 nM.

B18: I-748 (peptide)
peptide: XDLXDEAAFNXFXT
modifications: not fully specified; N-terminal Ac; C-terminal NH2; PL3 at 1, B5 at 4, S8 at 11, BztA at 13; stapled PL3-B5 and B5-S8 by olefin metathesis
notes: Stapled peptide; same description as I-749, earlier eluting staple isomer composition; also called Ac-PL3-Asp-Leu-B5-Asp-Glu-Ala-Ala-Phe-Asn-S8-Phe-BztA-Thr-NH2
B18 gave an IC50 in assay [2] of 54 nM.

The EC50 is the concentration that produces a half-maximal response. In general, IC50 refers to the concentration needed to halve the response being measured. Read a low IC50 as higher potency.

The record behind these values is patent publication US20240116985A1 (published 2024).
